# Results as given in patent US20240269176A1 (Hoffmann-La Roche, published 2024).
# Like-named read-outs stand apart in the source and are kept apart here.
# B1: anti-CD20 (GA101) P329G LALA IgG1 (antibody)
# heavy: not shown
# light: DIVMTQTPLSLPVTPGEPASISCRSSKSLLHSNGITYLYWYLQKPGQSPQLLIYQMSNLVSGVPDRFSGSGSGTDFTLKISRVEAEDVGVYYCAQNLELPYTFGGGTKVEIKRTVAAPSVFIFPPSDEQLKSGTASVVCLLNNFYPREAKVQWKVDNALQSGNSQESVTEQDSKDSTYSLSSTLTLSKADYEKHKVYACEVTHQGLSSPVTKSFNRGEC
# B2: anti-CD20 (GA101) wild type IgG1 (antibody)
# heavy: not shown
# light: B1 light
# notes: also called WT GA101
# B3: anti-CD20 (GA101) heterodimeric IgG1 (antibody)
# heavy 1: QVQLVQSGAEVKKPGSSVKVSCKASGYAFSYSWINWVRQAPGQGLEWMGRIFPGDGDTDYNGKFKGRVTITADKSTSTAYMELSSLRSEDTAVYYCARNVFDGYWLVYWGQGTLVTVSSASTKGPSVFPLAPSSKSTSGGTAALGCLVKDYFPEPVTVSWNSGALTSGVHTFPAVLQSSGLYSLSSVVTVPSSSLGTQTYICNVNHKPSNTKVDKKVEPKSCDKTHTCPPCPAPELLGGPSVFLFPPKPKDTLMISRTPEVTCVVVDVSHEDPEVKFNWYVDGVEVHNAKTKPREEQYNSTYRVVSVLTVLHQDWLNGKEYKCKVSNKALGAPIEKTISKAKGQPREPQVYTLPPCRDELTKNQVSLWCLVKGFYPSDIAVEWESNGQPENNYKTTPPVLDSDGSFFLYSKLTVDKSRWQQGNVFSCSVMHEALHNHYTQKSLSLSP
# heavy 2: QVQLVQSGAEVKKPGSSVKVSCKASGYAFSYSWINWVRQAPGQGLEWMGRIFPGDGDTDYNGKFKGRVTITADKSTSTAYMELSSLRSEDTAVYYCARNVFDGYWLVYWGQGTLVTVSSASTKGPSVFPLAPSSKSTSGGTAALGCLVKDYFPEPVTVSWNSGALTSGVHTFPAVLQSSGLYSLSSVVTVPSSSLGTQTYICNVNHKPSNTKVDKKVEPKSCDKTHTCPPCPAPELLGGPSVFLFPPKPKDTLMISRTPEVTCVVVDVSHEDPEVKFNWYVDGVEVHNAKTKPREEQYNSTYRVVSVLTVLHQDWLNGKEYKCKVSNKALPAPIEKTISKAKGQPREPQVCTLPPSRDEL
# light: B1 light
# modifications: defucosylated
# B4: anti-CD20 (GA101) LALA IgG1 (antibody)
# heavy: not shown
# light: B1 light
# Key:
# [1] = biological target: VL1VH3-CD8ATD-CD137CSD-CD3zSSD fusion; test: cell-based or functional assay
# [2] = biological target: VH2VL1-CD8ATD-CD137CSD-CD3zSSD fusion; test: cell-based or functional assay
# [3] = biological target: VH1VL1-CD8ATD-CD137CSD-CD3zSSD fusion; test: cell-based or functional assay
# [4] = biological target: VH3VL1-CD8ATD-CD137CSD-CD3zSSD fusion; test: cell-based or functional assay
# [5] = biological target: T1, VL1VH3-CD8ATD-CD137CSD-CD3zSSD fusion; test: NFAT-luciferase reporter assay, anti-P329G CAR Jurkat cells with WSUDLCL2 (CD20+) target cells
# T1 construct: Chimeric antigen receptor with scFv in VL-linker-VH orientation on Jurkat NFAT reporter T cells; the entry may be incomplete
# Procedure: (§1) Binding of the CAR to an immobilized adapter molecule (e.g. a tumor antigen bound adapter molecule) leads to CAR crosslinking resulting in T cell activation and in the expression of luciferase. […] The 384 well plate was centrifuged for 1 min at 300 g and RT and incubated at 37° C. and 5% CO₂ in a humidity atmosphere. After 7 h incubation 20% of the final volume of ONE-Glo™ Luciferase Assay (E6120, Promega) was added, and plates were centrifuged for 1 min at 350×g. Afterwards, the relative luminescence units (RLU) per s/well were measured immediately using a Tecan microplate reader. Concentration-response curves were fitted and EC₅₀ values were calculated using GraphPadPrism version 7. As p value the New England Journal of Medicine style was used as listed in GraphPadPrism 7. Meaning *=P≤0,033; **=P≤0,002; ***=P≤0,001.
# [6] = biological target: T2, VH2VL1-CD8ATD-CD137CSD-CD3zSSD fusion; test: as above
# T2 construct: Chimeric antigen receptor on Jurkat NFAT reporter T cells; also called VH2VL1 P329G-CAR
# Procedure: as §1
# [7] = biological target: T3, VH1VL1-CD8ATD-CD137CSD-CD3zSSD fusion; test: as above
# T3 construct: Chimeric antigen receptor on Jurkat NFAT reporter T cells; also called VH1VL1 P329G-CAR
# Procedure: as §1
# [8] = biological target: T4, VH3VL1-CD8ATD-CD137CSD-CD3zSSD fusion; test: as above
# T4 construct: Chimeric antigen receptor with humanized anti-P329G scFv (VH-linker-VL), expressed on Jurkat NFAT reporter T cells; expression construct carried a T2A-GFP reporter
# Procedure: as §1
# [9] = biological target: T1, VL1VH3-CD8ATD-CD137CSD-CD3zSSD fusion; test: cell-based or functional assay; remark: listed apart in the source
# [10] = biological target: T3, VH1VL1-CD8ATD-CD137CSD-CD3zSSD fusion; test: cell-based or functional assay; remark: listed apart in the source
# [11] = biological target: T4, VH3VL1-CD8ATD-CD137CSD-CD3zSSD fusion; test: cell-based or functional assay; remark: listed apart in the source
# murinPG-Fab-CAR = test: cell-based or functional assay
# [12] = biological target: T1, VL1VH3-CD8ATD-CD137CSD-CD3zSSD fusion; test: cell-based or functional assay; remark: listed apart in the source
# [13] = biological target: T3, VH1VL1-CD8ATD-CD137CSD-CD3zSSD fusion; test: cell-based or functional assay; remark: listed apart in the source
# [14] = biological target: T1, VL1VH3-CD8ATD-CD137CSD-CD3zSSD fusion; test: NFAT-luciferase reporter assay, anti-P329G CAR Jurkat cells with WSUDLCL2 (CD20+) target cells; remark: listed apart in the source
# Procedure: as §1
# [15] = biological target: T2, VH2VL1-CD8ATD-CD137CSD-CD3zSSD fusion; test: as above; remark: listed apart in the source
# Procedure: as §1
# [16] = biological target: T3, VH1VL1-CD8ATD-CD137CSD-CD3zSSD fusion; test: as above; remark: listed apart in the source
# Procedure: as §1
# [17] = biological target: T4, VH3VL1-CD8ATD-CD137CSD-CD3zSSD fusion; test: as above; remark: listed apart in the source
# Procedure: as §1
# T4 sequence (chain, as listed by the source): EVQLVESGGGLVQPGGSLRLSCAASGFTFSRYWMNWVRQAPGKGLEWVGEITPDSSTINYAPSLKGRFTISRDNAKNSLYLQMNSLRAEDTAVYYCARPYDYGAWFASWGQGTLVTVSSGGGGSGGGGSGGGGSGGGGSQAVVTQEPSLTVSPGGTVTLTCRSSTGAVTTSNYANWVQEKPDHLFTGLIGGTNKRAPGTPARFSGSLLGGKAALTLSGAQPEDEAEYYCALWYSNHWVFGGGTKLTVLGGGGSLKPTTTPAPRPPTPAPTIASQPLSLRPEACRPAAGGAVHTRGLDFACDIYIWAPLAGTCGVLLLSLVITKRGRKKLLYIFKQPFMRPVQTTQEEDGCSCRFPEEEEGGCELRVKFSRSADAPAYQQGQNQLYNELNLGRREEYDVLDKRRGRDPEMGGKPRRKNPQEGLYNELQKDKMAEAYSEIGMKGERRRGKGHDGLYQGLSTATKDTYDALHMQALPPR
# T1 sequence (chain, as listed by the source): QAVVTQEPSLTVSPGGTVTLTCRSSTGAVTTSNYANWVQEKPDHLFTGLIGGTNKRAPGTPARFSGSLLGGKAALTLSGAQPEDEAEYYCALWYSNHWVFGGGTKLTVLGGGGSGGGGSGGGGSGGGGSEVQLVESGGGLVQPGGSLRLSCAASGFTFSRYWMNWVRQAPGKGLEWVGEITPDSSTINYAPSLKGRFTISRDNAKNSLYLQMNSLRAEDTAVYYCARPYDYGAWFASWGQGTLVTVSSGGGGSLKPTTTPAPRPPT
# T3 sequence (chain, as listed by the source): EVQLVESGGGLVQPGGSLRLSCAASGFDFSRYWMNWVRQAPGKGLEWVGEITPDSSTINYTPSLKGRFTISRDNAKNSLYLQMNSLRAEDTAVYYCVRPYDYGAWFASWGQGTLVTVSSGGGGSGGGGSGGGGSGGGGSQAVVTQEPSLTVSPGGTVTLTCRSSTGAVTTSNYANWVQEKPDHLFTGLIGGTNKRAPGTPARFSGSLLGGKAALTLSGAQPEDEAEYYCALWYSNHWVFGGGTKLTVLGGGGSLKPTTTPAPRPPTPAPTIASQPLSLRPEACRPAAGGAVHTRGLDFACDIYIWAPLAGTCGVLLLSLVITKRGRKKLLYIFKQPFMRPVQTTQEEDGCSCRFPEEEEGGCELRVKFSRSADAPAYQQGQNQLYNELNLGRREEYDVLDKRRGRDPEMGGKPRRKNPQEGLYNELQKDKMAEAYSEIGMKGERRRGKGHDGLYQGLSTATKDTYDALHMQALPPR
# T2 sequence (chain, as listed by the source): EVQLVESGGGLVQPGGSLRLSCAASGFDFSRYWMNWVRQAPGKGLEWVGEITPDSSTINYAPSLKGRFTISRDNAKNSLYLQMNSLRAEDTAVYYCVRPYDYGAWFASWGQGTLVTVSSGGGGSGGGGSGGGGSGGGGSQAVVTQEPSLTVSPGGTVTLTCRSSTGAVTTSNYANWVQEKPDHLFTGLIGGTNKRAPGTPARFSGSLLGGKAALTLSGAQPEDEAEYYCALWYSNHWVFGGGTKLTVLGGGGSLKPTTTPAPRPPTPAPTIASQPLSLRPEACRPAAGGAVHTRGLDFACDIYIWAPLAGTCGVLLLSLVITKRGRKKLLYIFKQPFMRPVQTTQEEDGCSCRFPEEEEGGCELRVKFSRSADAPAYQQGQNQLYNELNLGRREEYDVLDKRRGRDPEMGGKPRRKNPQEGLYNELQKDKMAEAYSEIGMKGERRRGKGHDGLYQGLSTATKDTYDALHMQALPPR
binder,measurement,setting,value
B1,"EC50 of NFAT-luciferase activation of anti-P329G CAR Jurkat cells, WSUDLCL2 target cells (5:1); VL1 x VH 3",[1],~6.58 pM
same,"EC50 of NFAT-luciferase activation of anti-P329G CAR Jurkat cells, WSUDLCL2 target cells (5:1); table row VH2 x VL1",[2],~6.93 pM
same,"EC50 of NFAT-luciferase activation of anti-P329G CAR Jurkat cells, WSUDLCL2 target cells (5:1); VH1 x VL1",[3],8.1 pM
same,"EC50 of NFAT-luciferase activation of anti-P329G CAR Jurkat cells, WSUDLCL2 target cells (5:1); VH3 x VL1",[4],7.57 pM
B2,binding result,[5],no binding (tested: just below 10^2 nM (67 nM per paragraph 404))
same,binding result,[6],no binding (tested: just below 10^2 nM (67 nM per paragraph 404))
same,binding result,[7],no binding (tested: just below 10^2 nM (67 nM per paragraph 404))
same,binding result,[8],no binding (tested: just below 10^2 nM (67 nM per paragraph 404))
same,"EC50 of NFAT-luciferase activation of anti-P329G CAR Jurkat cells, WSUDLCL2 target cells (5:1); curve flat at 50-150 RLU/s, fit without meaning; VL1 x VH 3",[9],~78.3 pM
same,"EC50 of NFAT-luciferase activation of anti-P329G CAR Jurkat cells, WSUDLCL2 target cells (5:1); curve flat at 50-150 RLU/s, fit without meaning; VH1 x VL1",[10],~2.19 pM
same,"EC50 of NFAT-luciferase activation of anti-P329G CAR Jurkat cells, WSUDLCL2 target cells (5:1); curve flat at 50-150 RLU/s, fit without meaning; VH3 x VL1",[11],~85 pM
B3,"EC50 (read off the curve); NFAT-luciferase, anti-P329G CAR Jurkat reporter cells (panel title murinPG-Fab-CAR activation) with WSUDLCL2 CD20+ target cells",murinPG-Fab-CAR,~20 pM
B4,"EC50 of NFAT-luciferase activation of anti-P329G CAR Jurkat cells, WSUDLCL2 target cells (5:1); curve flat at 60-150 RLU/s, fit without meaning; VL1 x VH 3",[12],~0.000234 pM
same,"EC50 of NFAT-luciferase activation of anti-P329G CAR Jurkat cells, WSUDLCL2 target cells (5:1); curve flat at 60-150 RLU/s, fit without meaning; VH1 x VL1",[13],~0.0485 pM
same,binding result,[14],no binding (tested: just below 10^2 nM (67 nM per paragraph 404))
same,binding result,[15],no binding (tested: just below 10^2 nM (67 nM per paragraph 404))
same,binding result,[16],no binding (tested: just below 10^2 nM (67 nM per paragraph 404))
same,binding result,[17],no binding (tested: just below 10^2 nM (67 nM per paragraph 404))
